Percent of the protein as dimers and stoichiometry N data for four molecules are collected here from publication doi:10.1101/2025.11.26.690709.

For test [1], the target named is CHIP Y230Cfs*9, recombinant (human) (UniProt Q9UNE7). The test can be described thus: mass photometry.
Test [2] deals with CHIP-myc ΔStartCodon (c.3G>A) (human) (UniProt Q9UNE7). Briefly: native gel or EMSA.
Test [3] concerns the target T1, CHIP-myc wild type (human), Q9UNE7.
T1 chain: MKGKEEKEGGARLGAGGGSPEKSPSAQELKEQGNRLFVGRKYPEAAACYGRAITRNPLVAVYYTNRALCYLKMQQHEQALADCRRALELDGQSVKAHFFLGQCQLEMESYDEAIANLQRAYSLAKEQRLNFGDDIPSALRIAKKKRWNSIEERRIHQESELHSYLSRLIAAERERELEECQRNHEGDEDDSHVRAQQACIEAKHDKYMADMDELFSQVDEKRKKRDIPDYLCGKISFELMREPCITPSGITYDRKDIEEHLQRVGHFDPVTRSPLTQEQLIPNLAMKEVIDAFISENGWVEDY
The test can be described thus: native gel or EMSA. The settings on record: remark: other sources report otherwise. (In general: In EMSA bound probe runs differently from free probe, usually more slowly.)

In test [4] the target is T2, CHIP-myc K30A (human), Q9UNE7.
T2 chain: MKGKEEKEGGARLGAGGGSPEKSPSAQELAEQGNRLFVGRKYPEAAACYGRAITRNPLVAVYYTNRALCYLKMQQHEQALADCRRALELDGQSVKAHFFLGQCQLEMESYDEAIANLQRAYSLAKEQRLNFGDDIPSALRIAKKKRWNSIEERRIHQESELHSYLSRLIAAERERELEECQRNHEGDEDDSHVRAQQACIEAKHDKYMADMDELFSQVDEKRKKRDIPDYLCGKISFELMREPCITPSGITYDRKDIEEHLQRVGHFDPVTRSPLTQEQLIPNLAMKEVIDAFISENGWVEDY
The test can be described thus: native gel or EMSA. The settings on record: remark: other sources report otherwise.

“CHIP Y230Cfs*9, recombinant (from UniProt Q9UNE7-1 1-303) (natural protein)”: in test [1], the percent of the protein as dimers was 80% and the stoichiometry N (as a rule, a count of units in the complex or per binding partner) is 2.
Consider “CHIP-myc ΔStartCodon (c.3G>A) (from UniProt Q9UNE7-1 1-303) (natural protein)”, for which, in test [2], the stoichiometry N was found to be 2.

B1: CHIP-myc wild type, Q9UNE7-1 1-303 (natural protein)
chain: MKGKEEKEGGARLGAGGGSPEKSPSAQELKEQGNRLFVGRKYPEAAACYGRAITRNPLVAVYYTNRALCYLKMQQHEQALADCRRALELDGQSVKAHFFLGQCQLEMESYDEAIANLQRAYSLAKEQRLNFGDDIPSALRIAKKKRWNSIEERRIHQESELHSYLSRLIAAERERELEECQRNHEGDEDDSHVRAQQACIEAKHDKYMADMDELFSQVDEKRKKRDIPDYLCGKISFELMREPCITPSGITYDRKDIEEHLQRVGHFDPVTRSPLTQEQLIPNLAMKEVIDAFISENGWVEDY
The molecule B1 yielded a stoichiometry N in test [3] of 2.

B2: CHIP-myc K30A, Q9UNE7-1 1-303 (natural protein)
chain: MKGKEEKEGGARLGAGGGSPEKSPSAQELAEQGNRLFVGRKYPEAAACYGRAITRNPLVAVYYTNRALCYLKMQQHEQALADCRRALELDGQSVKAHFFLGQCQLEMESYDEAIANLQRAYSLAKEQRLNFGDDIPSALRIAKKKRWNSIEERRIHQESELHSYLSRLIAAERERELEECQRNHEGDEDDSHVRAQQACIEAKHDKYMADMDELFSQVDEKRKKRDIPDYLCGKISFELMREPCITPSGITYDRKDIEEHLQRVGHFDPVTRSPLTQEQLIPNLAMKEVIDAFISENGWVEDY
Turning to B2, in test [4], the stoichiometry N was 2.
